Laboratory results from US20250382353A1 (LA JOLLA INSTITUTE FOR IMMUNOLOGY, published 2025).

Experiments:
Assay in all cases: cell-based or functional assay
rVSV-Delta spike = rVSV-Delta spike (SARS-CoV-2 Delta, UniProt P0DTC2 14-1252)
rVSV-G614 spike = rVSV-G614 spike (SARS-CoV-2, UniProt P0DTC2 14-1252)
rVSV-Omicron spike = rVSV-Omicron spike (SARS-CoV-2 Omicron, UniProt P0DTC2 14-1252)

Row | Binder | IC50 (ng/mL), neutralization of rVSV-Delta pseudovirions on Vero cells (rVSV-Delta spike) [ng/mL] | IC50 (ng/mL), neutralization of rVSV-G614 pseudovirions on Vero cells (rVSV-G614 spike) [ng/mL] | IC50 (ng/mL), neutralization of rVSV-Omicron pseudovirions on Vero cells (rVSV-Omicron spike) [ng/mL]
1 | LJI_491-39 (2E6) (antibody, V domains shown) VH: EVQLVQSGGGLVQPGGSLKLSCAASGFTFSGSAMHWVRQASGKGLEWVGHIRSKANSYATAYAASKGRFTISRDDSKNTAYLQMNSLKTEDTAVYYCTREDIVGVPVAKDWFDPWGQGTLVTVS VL: DIQMTQSPSSLFASVGDRVTITCRASQSISSYLNWYQQKPGKAPKLLIYAASSLQSGVPSRFSGSGFGTDFTLTISSLQPEDFATYYCQQSYSTLSITFGQGTRLEIKR | 324 | 15 | 88
2 | LJI_491-27 (1C3) (antibody, V domains shown) VH: QVQLLESGGGLVQPGRSLRLSCAASGFTFDDYAMHWVRQPPGKGLEWVSGSSWNSGSVVYADSVKGRFTISRDSAKNSLHLQMNSLRVEDTALYYCAKAVDPTRGSYSPDYGFDIWGQGTMVTVS VL: not shown | 12 | 8 | 3
